According to patent US20250250330A1 (REVOPSIS THERAPEUTICS, published 2025):

Key:
Assay in all cases: ELISA; target coated at 1 ug/mL, anti-human IgG Fc-HRP detection
[1] = target: T1, rhVEGF-B_Peprotech (Peprotech_100-20B) (human, UniProt P49765-2 22-188)
T1 construct: Bought protein
T1 sequence (looked up): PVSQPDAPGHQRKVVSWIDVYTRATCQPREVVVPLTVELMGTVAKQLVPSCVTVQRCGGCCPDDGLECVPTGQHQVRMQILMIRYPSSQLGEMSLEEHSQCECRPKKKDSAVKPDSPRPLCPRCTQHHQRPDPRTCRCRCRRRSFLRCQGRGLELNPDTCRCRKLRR
Procedure: (§1) First, the binding to rhVEGF-B was tested in comparison with rhVEGF₁₆₅. rhVEGF-B or rhVEGF₁₆₅ was used to coat Corning 9017 medium binding plates at 1 μg/mL and […] per well. […] Donkey anti-human IgG Fcγ-HRP was used for detection. OD450 nm readings were measured by Victor 3.

[2] = target: T2, rhVEGF-B_AcroBio (AcroBio_VE6-H5225) (human, UniProt P49765 22-207)
T2 construct: Bought protein; not shown: His tag
T2 sequence (looked up): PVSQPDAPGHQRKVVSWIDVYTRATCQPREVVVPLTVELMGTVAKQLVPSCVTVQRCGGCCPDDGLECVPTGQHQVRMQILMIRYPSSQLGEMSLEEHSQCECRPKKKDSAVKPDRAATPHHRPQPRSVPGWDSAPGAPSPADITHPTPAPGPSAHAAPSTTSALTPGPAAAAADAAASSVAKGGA
Procedure: as §1

[3] = target: T3, Recombinant human VEGF165 (Peprotech, Cat #100-20) (human, UniProt P15692-4 27-191)
T3 construct: Bought protein; also called rhVEGF165; rh VEGF165
Procedure: as §1

EC50 [1]: > 100 nM
EC50 [2]: > 100 nM
EC50 [3]: 0.0165 nM
B1: RO-101 VEGF/ANG-2 bispecific surrobody (bispecific antibody, human IgG1, L234A L235A)
heavy 1: not shown
heavy 2: EVQLVESGGGLVKPGGSLRLSCAASGFTFSSYGMHWVRQAPGKGLEWVAGISADSGDKNYADSVKGRFTISRDNAKNSLYLQMNSLRAEDTAVYYCAKEFISWIYTFDYLDYWGQGTLVTVSSASTKGPSVFPLAPSSKSTSGGTAALGCLVKDYFPEPVTVSWNSGALTSGVHTFPAVLQSSGLYSLSSVVTVPSSSLGTQTYICNVNHKPSNTKVDKKVEPKSCDKTHTCPPCPAPEAAGGPSVFLFPPKPKDTLMISRTPEVTCVVVDVSHEDPEVKFNWYVDGVEVHNAKTKPREEQYNSTYRVVSVLTVLHQDWLNGKEYKCKVSNKALPAPIEKTISKAKGQPREPQVCTLPPSRDELTKNQVSLSCAVKGFYPSDIAVEWESNGQPENNYKTTPPVLDSDGSFFLVSKLTVDKSRWQQGNVFSCSVMHEALHNHYTQKSLSLSPG
light: QPVLHQPPAMSSALGTTIRLTCTLRNDHDIGVYSVYWYQQRPGHPPRFLLRYFSQSDKSQGPQVPPRFSGSKDVARNRGYLSISELQPEDEAMYYCAMGARSSVTHVFGSGTQLTVLSQPKATPSVTLFPPSSEELQANKATLVCLMNDFYPGILTVTWKADGTPITQGVEMTTPSKQSNNKYAASSYLSLTPEQWRSRRSYSCQVMHEGSTVEKTVAPAECS
notes: Format SgG1; also called Sample 1
